One block for each molecule: values may come before it.
Columns and labels:
[1] = molecular target: Las17 polyproline motif (Saccharomyces cerevisiae) (UniProt Q12446); details: cited from earlier work
[2] = molecular target: T1, Ede1 (Ede1-3myeGFP / Ede1-3mCherry) (S. cerevisiae, UniProt P34216 1-1381); test: fluorescence cross-correlation spectroscopy (FCCS); living yeast cells, observation volume in the cytoplasm; one protein tagged with (3)myeGFP/eGFP and the other with 3mCherry in the same strain; apparent (effective) KD; interactions up to ~1 μM detectable; details: partners not purified
T1 construct: Ede1, S. cerevisiae, homolog of mammalian Eps15; expressed from its own locus; also called wild-type Ede1; full-length Ede1; source: S. cerevisiae, chromosomally tagged at the endogenous locus, in living cells; not shown: 3myeGFP, C-terminal, kept; 3mCherry, C-terminal, kept
T1 sequence (looked up): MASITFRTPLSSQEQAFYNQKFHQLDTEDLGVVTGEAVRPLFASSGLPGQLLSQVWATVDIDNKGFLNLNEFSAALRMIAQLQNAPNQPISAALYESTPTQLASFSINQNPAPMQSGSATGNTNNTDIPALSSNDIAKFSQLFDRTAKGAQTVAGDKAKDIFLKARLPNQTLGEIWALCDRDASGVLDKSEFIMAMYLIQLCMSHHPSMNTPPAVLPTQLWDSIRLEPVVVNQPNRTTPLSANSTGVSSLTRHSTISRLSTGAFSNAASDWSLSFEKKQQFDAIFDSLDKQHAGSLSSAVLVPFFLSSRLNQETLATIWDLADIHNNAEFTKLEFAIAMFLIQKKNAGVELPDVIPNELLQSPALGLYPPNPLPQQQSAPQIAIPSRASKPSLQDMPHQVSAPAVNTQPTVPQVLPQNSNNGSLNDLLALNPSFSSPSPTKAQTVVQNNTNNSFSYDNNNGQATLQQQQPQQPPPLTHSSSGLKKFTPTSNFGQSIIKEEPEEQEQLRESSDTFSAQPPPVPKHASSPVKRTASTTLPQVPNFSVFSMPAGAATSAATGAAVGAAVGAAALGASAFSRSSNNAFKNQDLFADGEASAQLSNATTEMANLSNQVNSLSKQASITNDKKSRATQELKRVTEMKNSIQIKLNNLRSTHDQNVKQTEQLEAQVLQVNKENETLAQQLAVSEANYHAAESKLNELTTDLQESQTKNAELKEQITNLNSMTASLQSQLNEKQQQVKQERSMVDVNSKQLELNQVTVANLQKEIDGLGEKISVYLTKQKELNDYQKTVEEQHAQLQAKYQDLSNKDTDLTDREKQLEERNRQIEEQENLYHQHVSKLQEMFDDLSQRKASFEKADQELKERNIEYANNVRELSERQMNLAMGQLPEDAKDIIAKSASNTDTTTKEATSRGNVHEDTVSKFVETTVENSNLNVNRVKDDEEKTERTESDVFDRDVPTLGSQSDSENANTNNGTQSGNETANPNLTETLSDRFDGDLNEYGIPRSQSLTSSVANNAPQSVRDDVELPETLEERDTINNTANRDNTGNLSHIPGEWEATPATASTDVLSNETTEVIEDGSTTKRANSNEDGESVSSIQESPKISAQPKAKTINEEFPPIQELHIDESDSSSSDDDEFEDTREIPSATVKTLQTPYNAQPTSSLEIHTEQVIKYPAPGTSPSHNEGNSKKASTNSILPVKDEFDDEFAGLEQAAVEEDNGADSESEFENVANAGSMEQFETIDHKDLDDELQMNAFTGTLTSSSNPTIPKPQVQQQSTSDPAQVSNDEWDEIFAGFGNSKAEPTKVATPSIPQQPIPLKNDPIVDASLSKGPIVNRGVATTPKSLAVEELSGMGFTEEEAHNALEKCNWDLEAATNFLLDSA

[3] = molecular target: the molecule itself; test: FCS molecular brightness (counts per particle per second); living yeast cells, cytoplasm; brightness of GFP-tagged particles compared with 3myeGFP and Ent2-3myeGFP (monomers) or with wild-type Ede1; average of all particles
[4] = molecular target: T2, Apl3 (S. cerevisiae, UniProt P38065 1-1025); test: fluorescence cross-correlation spectroscopy (FCCS); in the cytoplasm of living yeast cells; first-named protein green (3myeGFP or 1myeGFP; eGFP for Don1), second red (3mCherry); self-interaction in diploid strains with one allele of each colour; apparent or effective KD (Kdeff) from single-cell measurements; only Kdeff values < 1000 nM are shown; values for self-interactions are upper limits; details: partners not purified
T2 construct: Apl3, subunit of the AP2 complex, S. cerevisiae; also called Apl3-3myeGFP; Apl3-3mCherry; source: chromosomally tagged at the endogenous locus, in the cytoplasm of living S. cerevisiae cells
T2 sequence (looked up): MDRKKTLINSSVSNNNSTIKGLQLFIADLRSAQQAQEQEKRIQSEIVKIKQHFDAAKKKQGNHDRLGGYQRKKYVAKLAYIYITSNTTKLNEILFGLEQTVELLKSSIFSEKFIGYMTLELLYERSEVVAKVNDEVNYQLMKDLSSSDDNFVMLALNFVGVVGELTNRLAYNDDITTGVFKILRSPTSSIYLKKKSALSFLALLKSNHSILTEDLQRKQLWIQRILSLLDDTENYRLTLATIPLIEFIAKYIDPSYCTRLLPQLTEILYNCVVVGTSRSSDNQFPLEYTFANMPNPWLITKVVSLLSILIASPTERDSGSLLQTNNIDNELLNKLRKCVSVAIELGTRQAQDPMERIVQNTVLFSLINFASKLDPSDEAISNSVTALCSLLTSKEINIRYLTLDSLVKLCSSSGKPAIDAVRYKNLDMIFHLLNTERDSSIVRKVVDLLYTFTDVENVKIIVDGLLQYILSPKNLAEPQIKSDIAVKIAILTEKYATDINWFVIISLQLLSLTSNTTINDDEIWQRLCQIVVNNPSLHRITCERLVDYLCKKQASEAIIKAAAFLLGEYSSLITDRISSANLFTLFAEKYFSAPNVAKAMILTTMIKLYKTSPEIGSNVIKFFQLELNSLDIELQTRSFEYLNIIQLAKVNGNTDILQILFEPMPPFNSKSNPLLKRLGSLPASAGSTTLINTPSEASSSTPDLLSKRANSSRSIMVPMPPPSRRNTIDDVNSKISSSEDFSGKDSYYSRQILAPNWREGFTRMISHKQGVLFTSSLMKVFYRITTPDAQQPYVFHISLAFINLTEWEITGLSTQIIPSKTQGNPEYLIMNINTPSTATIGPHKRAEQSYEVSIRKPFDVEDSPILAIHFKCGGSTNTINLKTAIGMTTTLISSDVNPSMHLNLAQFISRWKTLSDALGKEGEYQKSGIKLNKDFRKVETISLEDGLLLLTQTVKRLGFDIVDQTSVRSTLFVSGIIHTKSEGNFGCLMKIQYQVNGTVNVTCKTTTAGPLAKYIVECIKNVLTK

Molecule: Sla1 SH3 domains (from UniProt P32790)
Kd [1]: 56 nM

Kd [2]: 227 nM
B1: Syp1 (natural protein, S. cerevisiae, UniProt P25623 1-870, looked up)
chain: MTEQRTKYADSILTTKSPYEATETIRIRLSQVKLLNKDFYLLFKELANLKRNYAQQLRKIIAENEDITKILNAQMIESNVLTPQEMSAFRFNSLGELRNVWDTVIEELKSDLKSSTEYYNTLDQQVVRELKESVENNTSWRESKDLHSKLSKNAASIEHYSKNNENSSHLEEARRQWDQQSPYLFELFETIDYNRLDTLKNCMLRFQTSFSDYLLNTTKECETVMTKFLAFEPQSEIDRFAKDASQYNFQLSSSSKEVVPNNASPASATGARPVSVSNGAANTEREKKSPQKDKRKSAFGNIGHRLASASSSLTHNDLMNNEFSDSTNNSSLKSKKSSHTLRSKVGSIFGRNKTKNKRQQQSSSNSHIQASITETPNNSSTRVSSTATSSIYQKQRRPTYSSSKSNNWTPGEASDTPPLPPHATPKNVDAPVTADTPPAQTFTPSEVPPSTPQQSSPPTAKEPDSSNLPKTVPISISQPPLQPQSKTKPLPVEPASPSISLPTATVDNQPSGQVDSRPLHIRAPALPPSRKQNFIHNRDSQLYDSLPNHGSGATPTSSSLSSIPQERPVSTLSSQITGELRELNPQATGSSTSLVGQSLFQHSSLDTSQFGLNASIAEVLNASFKDGMLQNSQLIGEIALNYLPNSVMNSPLPIGINLRINNGAKFEKVILNQAFIERVAPEEFKVNPSFIDSRTLGAIKYSIKEPIAPIVIHPVWRFESHQASVVLTVKMSPSLPDEISQIVIEDLVVFVNIDGANATSALSKPQGSFSKEKKRITWRFKEPVVLTRNGEGQRLIARFITDGLAHESAKGVITKFTISETDNVALPHSGAGSGITLTCQELDENNPFGGEWLDVNTKRTLTTGNYHGLA
notes: Syp1, S. cerevisiae endocytic adaptor; Each copy carries one of the two tags; also called Syp1-3myeGFP; source: S. cerevisiae, chromosomally tagged at the endogenous locus, in living cells; not shown: 3myeGFP, C-terminal, kept; 3mCherry, C-terminal, kept

Kd [2]: 590 nM
B2: Sla2 (natural protein, S. cerevisiae, UniProt P33338 1-968, looked up)
chain: MSRIDSDLQKALKKACSVEETAPKRKHVRACIVYTWDHQSSKAVFTTLKTLPLANDEVQLFKMLIVLHKIIQEGHPSALAEAIRDRDWIRSLGRVHSGGSSYSKLIREYVRYLVLKLDFHAHHRGFNNGTFEYEEYVSLVSVSDPDEGYETILDLMSLQDSLDEFSQIIFASIQSERRNTECKISALIPLIAESYGIYKFITSMLRAMHRQLNDAEGDAALQPLKERYELQHARLFEFYADCSSVKYLTTLVTIPKLPVDAPDVFLINDVDESKEIKFKKREPSVTPARTPARTPTPTPPVVAEPAISPRPVSQRTTSTPTGYLQTMPTGATTGMMIPTATGAANAIFPQATAQMQPDFWANQQAQFANEQNRLEQERVQQLQQQQAQQELFQQQLQKAQQDMMNMQLQQQNQHQNDLIALTNQYEKDQALLQQYDQRVQQLESEITTMDSTASKQLANKDEQLTALQDQLDVWERKYESLAKLYSQLRQEHLNLLPRFKKLQLKVNSAQESIQKKEQLEHKLKQKDLQMAELVKDRDRARLELERSINNAEADSAAATAAAETMTQDKMNPILDAILESGINTIQESVYNLDSPLSWSGPLTPPTFLLSLLESTSENATEFATSFNNLIVDGLAHGDQTEVIHCVSDFSTSMATLVTNSKAYAVTTLPQEQSDQILTLVKRCAREAQYFFEDLMSENLNQVGDEEKTDIVINANVDMQEKLQELSLAIEPLLNIQSVKSNKETNPHSELVATADKIVKSSEHLRVDVPKPLLSLALMIIDAVVALVKAAIQCQNEIATTTSIPLNQFYLKNSRWTEGLISAAKAVAGATNVLITTASKLITSEDNENTSPEQFIVASKEVAASTIQLVAASRVKTSIHSKAQDKLEHCSKDVTDACRSLGNHVMGMIEDDHSTSQQQQPLDFTSEHTLKTAEMEQQVEILKLEQSLSNARKRLGEIRRHAYYNQDDD
notes: Sla2, S. cerevisiae; Each copy carries one of the two tags; also called Sla2-3myeGFP; source: S. cerevisiae, chromosomally tagged at the endogenous locus, in living cells; not shown: 3myeGFP, C-terminal, kept; 3mCherry, C-terminal, kept
molecular brightness per particle relative to 3myeGFP [3]: 2 fold

Kd [4]: 37 nM
B3: Apl1 (natural protein, S. cerevisiae, UniProt P27351 1-700, looked up)
chain: MSDQKVFARYKANEIVTDLQHFGVKKFKSNITRRKNALRKIIANLVLGNYGEMSVLFSELLKFWQIEDDLEVKRICHEYIRVIGALKPQQAREALPFIMDDFKSRDEKLQIMALRTLVLVPVKELSDQAFDCIISLVNHKSPPEQVTRTAIYALLDLDEIDHERVLGLSSILHDIVKAQSSSPEVIVAALHTLYSIHEKNANMEPFRIPLELAFDMLELLPELNEWNKATVLEVLTTSVVPQHYLDTHEMIELALPYLQQVNTYVVLNSLKFIMYLLNYVDVIKETLAEKLSNSVIALLDKPPELQFLVLRNVILLLLSRESSLLRLDISYFFIEYNDPIYIKDTKLECLYLLANKETLPRILEELEQYATDIDIQMSRKSVRAIGNLAVKLDEDSVHDCVAVLLDLLEFGVDYVVQEIISVFRNILRKYPNNFKANVTELVKHTEVVQEPESKNAMIWIITQYSDVIPNYLELFRVFSSNMFSETLEVQFSILNSAIKFFIRSPTKETEELCMDLLKGCIDHENNPDLRDKTLMYWRLLSLTKTSRISNAITFESLKSVLDGELPLIEMNTKLDPTVLEELELNIGTIVSIYLKPVSHIFRLNKTKLLPQSPILNPNKDLLPVVGNSFPPTGANRDRQNSESQSSTKSRKTAMMDDYDKPAEKINQLKGKRKSSSNNPSKLSRKPSTLLRKLSMKRPFS
notes: Apl1, subunit of the AP2 complex, S. cerevisiae; also called Apl1-1myeGFP; Apl1-3mCherry; source: chromosomally tagged at the endogenous locus, in the cytoplasm of living S. cerevisiae cells

Reference: paper PMC4299599, “Quantification of cytosolic interactions identifies Ede1 oligomers as key organizers of endocytosis” (Molecular Systems Biology, 2014)
